The results in this text go back to PMC5461540, “MOB1 Mediated Phospho-recognition in the Core Mammalian Hippo Pathway” (Molecular & Cellular Proteomics : MCP, 2017).

Experiment [1] deals with FITC labeled phosphorylated MST1 T367 peptide (human). Kind of experiment: fluorescence polarisation; 20 nM FITC-labelled peptide, MOB protein titrated (12 points, triplicate); 25 mM HEPES pH 7.5, 150 mM NaCl, 2 mM DTT, 1 mg/ml BSA; one site-specific binding fit. (Fluorescence polarisation rises when a labelled molecule tumbles more slowly, as on binding a larger partner.)

Experiment [2] concerns the target FITC labeled phosphorylated MST1 T353 peptide (human). Described as above.

B1: MOB4 (tags cleaved) (natural protein)
chain: VMAEGTAVLRRNRPGTKAQDFYNWPDESFDEMDSTLAVQQYIQQNIRADCSNIDKILEPPEGQDEGVWKYEHLRQFCLELNGLAVKLQSECHPDTCTQMTATEQWIFLCAAHKTPKECPAIDYTRHTLDGAACLLNSNKYFPSRVSIKESSVAKLGSVCRRIYRIFSHAYFHHRQIFDEYENETFLCHRFTKFVMKYNLMSKDNLIVPILEEEVQNSVSGESEA
As to B1, in experiment [1], the Kd – broadly, the equilibrium constant for the complex coming apart – came out at 12.2 µM.

B2: MOB1A wild-type (natural protein)
chain: SFLFSSRSSKTFKPKKNIPEGSHQYELLKHAEATLGSGNLRQAVMLPEGEDLNEWIAVNTVDFFNQINMLYGTITEFCTEASCPVMSAGPRYEYHWADGTNIKKPIKCSAPKYIDYLMTWVQDQLDDETLFPSKIGVPFPKNFMSVAKTILKRLFRVYAHIYHQHFDSVMQLQEEAHLNTSFKHFIFFVQEFNLIDRRELAPLQELIEKLGSKDR
Regarding B2, the results for the Kd in experiment [2] and in experiment [1] were 280 nM and 0.68 µM, respectively.
